From patent US20090233318A1 (RECEPTOR LOGIC, published 2009)

Target: T1, activated soluble HLA-A*0201 (PolyTest) (human)
T1 construct: also called sHLA
Assay: fluorescence polarization competition against 2.2 nM standard FITC-labeled peptide P5(A*0201), 40.5 µg/ml sHLA A*0201VLDL (2507)

logIC50(nM)	Binder
2.97 log10 of nM	GVLPALPQV (Synthetic peptide; also called GVL(47)) [GVL peptide, GVLPALPQV (hCGβ 47-55)]
3.27 log10 of nM	TMTRVLQGV (Synthetic peptide; also called TMT(40)) [TMT peptide, TMTRVLQGV (hCGβ 40-48)]
2.96 log10 of nM	VLQGVLPAL (Synthetic peptide; also called VLQ(44)) [VLQ peptide, VLQGVLPAL (hCGβ 44-52)]
